Patent US20070172504A1, “In vivo cell surface engineering” (University of Lousville Research Foundation, Inc., priority 2005, published 2007)

Key:
CD4^+ or CD8^+ T cells = experiment: proliferation of CFSE-labeled T cells against A20 cells decorated with 4-1BBL; format: cell-based, C57B/6 (H2-K^b) mice; conditions: 4:1 ratio, 4 days co-culture, flow cytometry
Method: CD4^+ and CD8^+ T cells were FACS-sorted from spleens and lymph nodes of naïve C57B/6 (H2-K^b) mice and were stained with carboxyfluorescein diacetate succinimidylester (CFSE). Briefly, cells were washed with PBS, incubated in 4 ml of 2.5 μM CFSE/1×10^6 cells for 7 minutes at room temperature. Cells were then incubated in two volumes of FBS for 1 min, and washed 2 times with PBS. A20 B lymphoma cells (H2-K^d) were washed in PBS and biotinylated using freshly prepared EZ-Link Sulfo-NHS-LC-Biotin in PBS (1 ml solution per 50×10^6 cells) for 30 min at room temperature. After washing with PBS, cells were irradiated at 10000 cGy. Biotinylated and irradiated A20 cells were incubated with CSA-4-1BBL (100 ng/1×10^6cells) or control protein CSA (38 ng/1×10^6 cells) in 5 ml tubes for 30 minutes in a cold room. After washing the cells extensively, some of the cells were stained with fluorochrome conjugated antibodies against 4-1BBL and streptavidin to detect the decoration, or with fluorochrome conjugated streptavidin to detect biotinylation. […]
Proliferation of T cells were determined using flow cytometry after staining cells with fluorochrome conjugated anti-CD4 or anti-CD8 antibodies.

LLC cells = experiment: ex vivo co-display of fusion proteins on biotinylated LLC cells (flow cytometry); format: cell-based; conditions: 15 μM biotin, 100 ng/protein/10^6 cells
Method: (§1) Engineering of cell surfaces. LLC or A20 tumor cells are washed with ice-cold PBS and incubated at 2×10^7 cells/ml in PBS, pH 8.0, containing 5-15 μM EZ-Link™ Sulfo-NHS-LC-Biotin (Pierce) at room temperature for 30 min. Cells are washed extensively and incubated at 1×10^6 cell/ml with 100 ng/purified immune co-stimulatory-streptavidin fusion protein for 45 min at 4° C. After extensive washing with PBS, cells are processed for flow cytometric analysis to assess the cells engineered with the immune co-stimulatory fusion proteins. Such cells also are used for functional studies in vitro. Cells are irradiated at 100 Gy prior to being used in in vitro studies.
One million LLC cells were biotinylated using 15 μM of EZ-Link™ Sulfo-NHS-LC-Biotin derivative from Pierce Biotechnology, Inc. (Rockford, Ill.) in PBS at room temperature for 20-30 minutes. Biotin was then removed by centrifugation, cells were washed once, transferred into a clean second tube, washed 1-2 more times, and then contacted with CD80-CSA and 4-1BBL-CSA fusion proteins at 100 ng/protein/10^6 cells in PBS for 30-45 minutes on ice. Cells were then washed extensively and used for staining with saturating concentrations of various fluorochrome-conjugated antibodies to CD80 and 4-1BBL in PBS by incubation on ice for 30-45 minutes. Cells were then washed extensively with FACS medium and used for flow cytometric analysis. […] FIG. 8.

A20 cells [1] = experiment: ex vivo co-display of fusion proteins on biotinylated A20 cells (flow cytometry); format: cell-based; conditions: 5 μM biotin, 100 ng/protein/10^6 cells
Method: as §1
A20 cells were biotinylated (5 μM) and then contacted with CD80-CSA and 4-1BBL-CSA fusion proteins at 100 ng/protein/10^6 cells, following procedures similar to those set forth above.

[2] = test system: peripheral blood lymphocytes from healthy volunteers; experiment: MLTR assay with tumor cells engineered with CD80-CSA; format: cell-based, human; conditions: HEC-1-A endometrial cancer cell line engineered with CD80-CSA
A20 B lymphoma cells [3] = experiment: quantification of CD80-CSA molecules displayed per cell (Quantum-27 MESF kit); format: cell-based; conditions: 5 μM biotin, 100 ng protein
Method: Cells were stained with phycoerythrin (PE) conjugated anti-human CD80 antibody. The Quantum-27 MESF kit from Bangs Laboratories was used to estimate the number of CD80-CSA molecules per cell. Molecules of equivalent soluble fluorochrome (MESF) for the samples were calculated according to the calibration curve constructed by five MESF beads with varying MESF values (0, 727, 2737, 10110, 41738) using Cell Quest analysis program (Becton Dickinson Biosciences). The data for each sample was converted into MESF values. FIG. 10.

A20 B lymphoma cells [4] = experiment: in vivo engineering of solid A20 tumors (intratumoral biotin, then CD80-CSA); set-up: species or system Balb/c mice
Method: One million live A20 B lymphoma cells were injected subcutaneously to the right flank of naïve syngeneic Balb/c mice. When the tumor size reached 7-9 mm in diameter, 300 μL of 1 mM EZ-Link Sulfo-NHS-LC-Biotin in PBS was injected into the tumor, followed 24 hrs later by intratumoral injection of 40 μg of CD80-CSA fusion protein in 150 μL PBS. Tumor cells were harvested and analyzed 24 hrs after protein injection. Biotin levels were detected by streptavidin-APC and fusion protein levels were detected by an antibody against CD80. Cells from untreated tumors and biotinylated tumors were used as negative controls for biotin and CD80, respectively.

A20 cells [5] = experiment: effect of timing of CD80-CSA administration after biotinylation of A20 tumors; format: in vivo, BALB/c mice
Method: A similar protocol was followed to evaluate the effect of the timing of the CD80-CSA administration subsequent to biotinylation. 1×10^6 A20 cells were injected subcutaneously into the right back flank of naïve BALB/c mice. Tumor growth was monitored and measured using calipers three times a week. When the tumor size reached 7-9 mm average diameter, 300 μl of 5 mM biotin solution (EZ-Link Sulfo-NHS-LC-Biotin in PBS) was injected into the tumors. At 2, 4, 8 or 16 hours after biotin injection, biotinylation was assessed as described above and 50 μg of CD80-SA was administered by intratumoral injection. (Some animals were left untreated as negative controls.) Animals were euthanized 16 hours after CD80-SA injection. Tumors were processed into single cell suspensions, and fusion protein levels were detected by an antibody against CD80 using flow cytometry. The results (FIG. 16) show a greater percentage of biotinylated cells decorated when the fusion protein was administered 16 hours after biotin administration, with 62% of biotinylated cells being decorated, compared to 49%, 31% and 10% at 8, 4 and 2 hours post-biotin administration, respectively.

splenocytes = experiment: in vivo kinetics of protein display on ex vivo engineered splenocytes; conditions: 15 μM biotin, 100 ng/1×10^6 cells, injected intravenously into syngeneic animals
Method: The kinetics of persistence of the exogenous proteins on the cell surface was determined in vivo. Splenocytes were modified with biotin (15 μM), engineered with an CD80-CSA fusion protein (100 ng/1×10^6 cells), labeled with CFSE, and injected intravenously into syngeneic animals. Splenocytes and LN cells were harvested various days post-injection and analyzed for the presence of fusion protein on CFSE positive cells. CD80-CSA persisted on the surface of splenocytes with a t1/2 of >10 days. FIG. 9.

B1: 4-1BBL-CSA: CSA-murine 4-1 BBL fusion protein (SEQ ID NOs 5 and 6) (protein)
chain: FMQLKGGSDLNMKLCILLAVVAFVGLSLGRSHHHHHHITGTWYNQLGSTFIVTAGADGALTGTYESAVGNAESRYVLTGRYDSAPATDGSGTALGWTVAWKNNYRNAHSATTWSGQYVGGAEARINTQWLLTSGATEANAWKSTLVGHDTFTKVKPSAASSEFRTEPRPALTITTSPNLGTRENNADQVTPVSHIGCPNTTQQGSPVFAKLLAKNQASLCNTTLNWHSQDGAGSSYLSQGLRYEEDKKELVVDSPGLYYVFLELKLSPTFTNTGHKVQGWVSLVLQAKPQVDDFDNLALTVELFPCSMENKLVDRSWSQLLLLKAGHRLSVGLRAYLHGAQDAYRDWELSYPNTTSFGLFLVKPDNPWE
CD4^+ or CD8^+ T cells
  proliferative response of T cells against decorated A20 cells: 52.6%
LLC cells
  display on the surface of tumor cells: co-displayed on the surface of tumor cells at comparable levels
A20 cells [1]
  display on the surface of tumor cells: co-displayed on the surface of tumor cells at comparable levels

B2: CD80-CSA: chimeric protein comprising the extracellular domain of human B7.1 (CD80) and core streptavidin (SEQ ID NO:4) (protein)
chain: SPVQLKGGSDLNMKLCILLAVVAFVGLSLGRSIHVTKEVKEVATLSCGHNVSVEELAQTRIYWQKEKKMVLTMMSGDMNIWPEYKNRTIFDITNNLSIVILALRPSDEGTYECVVLKYEKDAFKREHLAEVTLSVKADFPTPSISDFEIPTSNIRRIICSTSGGFPEPHLSWLENGEELNAINTTVSQDPETELYAVSSKLDFNMTTNHSFMCLIKYGHLRVNQTFNWNTTKQERSHHHHHHITGTWYNQLGSTFIVTAGADGALTGTYESAVGNAESRYVLTGRYDSAPATDGSGTALGWTVAWKNNYRNAHSATTWSGQYVGGAEARINTQWLLTSGATEANAWKSTLVGHDTFTKVKPSAASSRILQISSTVAAARV
[2]
  proliferative response of peripheral blood lymphocytes: potent proliferative responses
A20 B lymphoma cells [3]
  average number of molecules per cell: 118,000 molecules per cell
A20 B lymphoma cells [4]; 40 μg intratumorally 24 hrs after biotin, 24 hrs after protein injection
  tumor cells positive for CD80: 81%
A20 B lymphoma cells [4]; I mM biotin followed by 40 μg 24 hrs later
  biotin positive cells displaying protein: > 80%
A20 cells [5]; 50 μg intratumorally 2 hours after 5 mM biotin
  biotinylated cells being decorated: 10%
A20 cells [5]; 50 μg intratumorally 4 hours after 5 mM biotin
  biotinylated cells being decorated: 31%
A20 cells [5]; 50 μg intratumorally 8 hours after 5 mM biotin
  biotinylated cells being decorated: 49%
A20 cells [5]; 50 μg intratumorally 16 hours after 5 mM biotin
  biotinylated cells being decorated: 62%
LLC cells
  display on the surface of tumor cells: co-displayed on the surface of tumor cells at comparable levels
A20 cells [1]
  display on the surface of tumor cells: co-displayed on the surface of tumor cells at comparable levels
splenocytes
  t1/2 of persistence on the surface of splenocytes in vivo: > 240 h
